Source: patent US7641891B2, “Chimeric, human and humanized anti-CSAp monoclonal antibodies” (Immunomedics, Inc., priority 1998, dated 2010)

B1: cMu-9-2: chimeric Mu-9 constructed from the VH and Vk2 and expressed in Sp2/0 cells (antibody, V domains shown)
VH: QVQLQESGPELVKPGASVKMSCRASGYTFTEYVITWVKQRTGQGLEWIGEIYPGSGSTSYNEKFKGKATLTADKSSNTAYMHLSSLTSEDSAVYFCTREDLGGQGTLVTVSS
VL: DILQTQTPLSLPVSLGDQASISCRSSQSIVHSNGNTYLEWYLQKPGQSPKLLIYKVSNRFSGVPDRFSGTGSGTDFTVRISRVEAEDLGLYYCFQGSRVPYTFGGGTKLEIKR
modifications: human constant regions
notes: chimeric Mu-9 constructed from the VH and Vk2 and expressed in Sp2/0 cells
B2: murine Mu-9: murine monoclonal antibody of the IgG1 subtype, directed against the colon-specific antigen-p mucin (CSAp) (antibody, listed as Murine sp., V domains shown)
VH: VQLQESGPELVKPGASVKMSCRASGYTFTEYVITWVKQRTGQGLEWIGEIYPGSGSTSYNEKFKGKATLTADKSSNTAYMHLSSLTSEDSAVYFCTREDLGGQGTLVTVSS
VL: AVLMTQTPLSLPVSLGDQASISCRSSQSIVHSNGNTYLEWYLQKPGQSPKLLIYKVSNRFSGVPDRFSGTGSGTDFTVRISRVEAEDLGLYYCFQGSRVPYTFGGGTKLEIK
modifications: murine IgG1 constant regions

How the values were obtained:
CSAp antigen [1] = test: Competitive Binding Assay against HRP-conjugated Mu-9; design: species or system human; settings: for Competition with the binding of HRP-conjugated Mu-9 to the CSAp antigen: antigen-coated wells, competing antibody 0-50 μg/ml; for Binding affinity to CSAp antigen compared with murine Mu-9: see Example 8-9
Protocol: Murine Mu-9 IgG was conjugated with horseradish peroxidase (HRP) (Sigma). The peroxidase-conjugated Mu-9 was first tested for binding on microwells coated with CSAp antigen, and the optimum concentration was determined to be 0.2 μg/ml. Peroxidase-conjugated Mu-9 was mixed with various concentrations of either murine or chimeric Mu-9 (0-50 μg/ml) before addition to the antigen-coated wells. Binding of the peroxidase-conjugated Mu-9 to the antigen in the presence of the competing antibodies was measured at 490 nm after the addition of the substrate as described earlier.
The binding affinity of hMu-9 was compared in a competitive binding assay as described in Example 6.

CSAp antigen [2] = test: Mu-9 Direct Binding Assay (ELISA); design: species or system human; settings: wells coated with GW-39 tumor extract fraction, murine Mu-9 as standard
Protocol: Chimeric antibody supernatant (100 μl) or purified antibody (0-1 μg/ml) was added and incubated at room temperature for 1 hour. Unbound proteins were removed by washing six times with wash buffer (PBS containing 0.05% Tween 20). Purified murine Mu-9 protein was used as the standard. The bound antibodies were allowed to react with peroxidase-conjugated goat anti-human IgG, Fc fragment-specific (Jackson ImmunoResearch, West Grove Pa.) and peroxidase conjugated goat anti-mouse IgG, Fc fragment-specific antibodies (Jackson ImmunoResearch). […] The color was developed in the dark for 1 hour, the reaction was stopped with 50 μl of 4NH2SO4, and the absorbance at 490 nm was measured in a Dynatech plate reader (Dynatech Labs, Sussex, UK).
The methods for expression and binding activity assays for hMu9 were same as described for cMu9. Approximately 10 and 30 μg of linearized hMu9VkpKh and hMu9VHpG1g were co-transfected into SP2/0 cells by electroporation. Transfected cells were grown in 96-well cell culture plates in complete medium for 2 days and then selected by the addition of hygromycin at a final concentration of 500 U/ml. Typically, the colonies began to emerge 2-3 weeks after electroporation and were assayed for antibody secretion by enzyme-linked immunosorbent assay (ELISA). […] The purified antibodies (5 μg) were analyzed by SDS-PAGE on a 4-20% gradient gel under reducing conditions.

Row | Molecule | Competition with the binding of HRP-conjugated Mu-9 to the CSAp antigen (CSAp antigen [1]) | Binding affinity to CSAp antigen compared with murine Mu-9 (CSAp antigen [1]) | Binding affinity to CSAp antigen compared with murine Mu-9 (CSAp antigen [1]; listed as cMu-9) | Direct binding to CSAp antigen (CSAp antigen [2]) | Direct binding to CSAp antigen (CSAp antigen [2]; listed as cMu-9)
1 | B1 | competed equally well | comparable binding affinity to CSAp antigen as that of murine Mu-9 | comparable to that of its murine counterpart | virtually superimposable on that of the murine Mu-9 | bound avidly to the CSAp antigen
2 | B2 | competed equally well | – | – | – | –
